Measured values from publication PMC5780041.

Columns and labels:
Experiment in all cases: GST pull-down, quantified immunoblot
[1] = biological target: 4x tandem linear human ubiquitin (C-terminal His-tagged) (UniProt P0CG48); conditions: - PINK1 (non-phosphorylated 4xUb); parent: est. 32; read off a plot
[2] = biological target: 4x tandem linear human ubiquitin (C-terminal His-tagged), phosphorylated in vitro by GST-TcPINK1 (UniProt P0CG48); conditions: + PINK1 (4xUb pre-treated with GST-TcPINK1); parent: est. 20; read off a plot
[3] = biological target: 3x tandem linear human ubiquitin (C-terminal His-tagged), phosphorylated in vitro by GST-TcPINK1 (UniProt P0CG48); conditions: + PINK1 (3xUb pre-treated with GST-TcPINK1); parent: est. 14; read off a plot
[4] = biological target: 3x tandem linear human ubiquitin (C-terminal His-tagged) (UniProt P0CG48); conditions: - PINK1 (non-phosphorylated 3xUb); parent: est. 16; read off a plot
[5] = biological target: 2x tandem linear human ubiquitin (C-terminal His-tagged), phosphorylated in vitro by GST-TcPINK1 (UniProt P0CG48); conditions: + PINK1 (2xUb pre-treated with GST-TcPINK1); parent: est. 7.5; read off a plot

Chain of GST-tagged mouse RABGEF1 (WT) 1-74aa, Q9JM13 Y26A (Q9JM13 1-74 Y26A): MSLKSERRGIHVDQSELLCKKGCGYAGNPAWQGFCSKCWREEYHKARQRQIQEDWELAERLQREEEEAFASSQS
Chain of GST-tagged mouse RABGEF1 (WT) 1-74aa, Q9JM13 A58D (Q9JM13 1-74 A58D): as the sequence (Q9JM13 1-74 Y26A) above, with A26Y, A58D counted along it

Row | response [1] | response [2] | response [3] | response [4] | response [5] | Substance
1 | 24 % of total | 17 % of total | 8 % of total | 8 % of total | – | GST-tagged mouse RABGEF1 (WT) 1-74aa, Q9JM13 A58D
2 | 28 % of total | 20 % of total | 13 % of total | 14 % of total | 4 % of total | GST-tagged mouse RABGEF1 (WT) 1-74aa, Q9JM13 Y26A
